Values of other authors as cited in paper PMC10772121.
pKd: −log10 of the molar value.

Tests used:
[1] = target: KIR2DS4 (Homo sapiens) (UniProt P43632); experiment: ELISA
[2] = target: KIR2DL2 (Homo sapiens) (UniProt P43627); experiment: ELISA
KIR2DL2 (Homo sapiens), sequence (P43627 22-245): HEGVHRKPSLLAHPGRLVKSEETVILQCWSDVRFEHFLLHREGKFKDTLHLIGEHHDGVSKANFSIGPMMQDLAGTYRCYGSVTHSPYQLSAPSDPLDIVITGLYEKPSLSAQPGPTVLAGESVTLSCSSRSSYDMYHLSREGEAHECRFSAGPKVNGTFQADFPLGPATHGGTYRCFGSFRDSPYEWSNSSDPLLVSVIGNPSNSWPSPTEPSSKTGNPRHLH

KIR2DS4 (Homo sapiens), sequence (P43632 22-245): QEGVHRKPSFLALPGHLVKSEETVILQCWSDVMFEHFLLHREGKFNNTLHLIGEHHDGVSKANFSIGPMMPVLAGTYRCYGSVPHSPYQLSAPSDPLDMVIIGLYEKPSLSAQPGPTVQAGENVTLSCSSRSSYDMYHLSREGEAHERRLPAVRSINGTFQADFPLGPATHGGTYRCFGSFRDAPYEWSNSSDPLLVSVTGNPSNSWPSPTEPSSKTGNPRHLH

- pKd [1]: 7.70
- pKd [2]: 10.22
Substance: Lirilumab
